Experimental data as given in patent US20020127684.

Tests used:
[1] = target: T1, GST-ATF2
T1 sequence (P15336 whole entry, species assumed, looked up): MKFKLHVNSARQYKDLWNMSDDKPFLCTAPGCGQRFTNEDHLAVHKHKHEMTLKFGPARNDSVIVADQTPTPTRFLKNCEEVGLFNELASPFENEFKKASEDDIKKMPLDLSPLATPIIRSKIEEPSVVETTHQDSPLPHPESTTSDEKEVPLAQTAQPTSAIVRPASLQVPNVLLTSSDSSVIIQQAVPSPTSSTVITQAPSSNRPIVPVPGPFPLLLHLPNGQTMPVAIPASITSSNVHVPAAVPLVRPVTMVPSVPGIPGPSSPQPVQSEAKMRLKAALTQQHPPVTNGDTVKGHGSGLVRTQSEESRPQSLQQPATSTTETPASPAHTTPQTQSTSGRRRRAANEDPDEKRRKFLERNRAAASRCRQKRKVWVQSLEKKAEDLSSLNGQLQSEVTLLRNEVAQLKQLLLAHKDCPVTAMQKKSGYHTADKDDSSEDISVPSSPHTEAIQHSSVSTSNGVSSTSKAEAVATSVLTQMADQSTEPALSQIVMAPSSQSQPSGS

[2] = target: H1 histone
[3] = target: Phas-1 (4E-BP-1)
[4] = target: myelin basic protein

Measured: in vitro kinase assay with gamma-32P ATP: phosphorylation of heterologous substrate

Chain of myelin basic protein (P02687 whole entry): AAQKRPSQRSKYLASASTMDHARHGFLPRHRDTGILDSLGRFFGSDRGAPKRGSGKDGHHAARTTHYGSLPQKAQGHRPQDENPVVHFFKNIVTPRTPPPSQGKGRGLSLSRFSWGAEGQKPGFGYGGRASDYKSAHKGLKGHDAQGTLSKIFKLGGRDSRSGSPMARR

B1: GST-CARK fusion protein (full length human CARK) (protein)
chain: MGNYKSRPTQTCTDEWKKKVSESYVITIERLEDDLQIKEKELTELRNIFGSDEAFSKVNLNYRTENGLSLLHLCCICGGKKSHIRTLMLKGLRPSRLTRNGFTALHLAVYKDNAELITSLLHSGADIQQVGYGGLTALHIATIAGHLEAADVLLQHGANVNIQDAVFFTPLHIAAYYGHEQVTRLLLKFGADVNVSGEVGDRPLHLASAKGFLNIAKLLMEEGSKADVNAQDNEDHVPLHFCSRFGHHDIVKYLLQSDLEVQPHVVNIYGDTPLHLACYNGKFEVAKEIIQISGTESLTKENIFSETAFHSACTYGKSIDLVKFLLDQNVININHQGRDGHTGLHSACYHGHIRLVQFLLDNGADMNLVACDPSRSSGEKDEQTCLMWAYEKGHDAIVTLLKHYKRPQDELPCNEYSQPGGDGSYVSVPSPLGKIKSMTKEKADILLLRAGLPSHFHLQLSEIEFHEIIGSGSFGKVYKGRCRNKIVAIKRYRANTYCSKSDVDMFCREVSILCQLNHPCVIQFVGACLNDPSQFAIVTQYISGGSLFSLLHEQKRILDLQSKLIIAVDVAKGMEYLHNLTQPIIHRDLNSHNILLYEDGHAVVADFGESRFLQSLDEDNMTKQPGNLRWMAPEVFTQCTRYTIKADVFSYALCLWEILTGEIPFAHLKPAAAAADMAYHHIRPPIGYSIPKPISSLLIRGWNACPEGRPEFSEVVMKLEECLCNIELMSPASSNSSGSLSPSSSSDCLVNRGGPGRSHVAALRSRFELEYALNARSYAALSQSAGQYSSQGLSLEEMKRSLQYTPIDKYGYVSDPMSSMHFHSCRNSSSFEDSS
phosphorylated: all assays above

B2: GST-CARK-KD fusion protein (CARK kinase domain, amino acid residues 424 to 835 of SEQ ID NO:2) (protein)
chain: SYVSVPSPLGKIKSMTKEKADILLLRAGLPSHFHLQLSEIEFHEIIGSGSFGKVYKGRCRNKIVAIKRYRANTYCSKSDVDMFCREVSILCQLNHPCVIQFVGACLNDPSQFAIVTQYISGGSLFSLLHEQKRILDLQSKLIIAVDVAKGMEYLHNLTQPIIHRDLNSHNILLYEDGHAVVADFGESRFLQSLDEDNMTKQPGNLRWMAPEVFTQCTRYTIKADVFSYALCLWEILTGEIPFAHLKPAAAAADMAYHHIRPPIGYSIPKPISSLLIRGWNACPEGRPEFSEVVMKLEECLCNIELMSPASSNSSGSLSPSSSSDCLVNRGGPGRSHVAALRSRFELEYALNARSYAALSQSAGQYSSQGLSLEEMKRSLQYTPIDKYGYVSDPMSSMHFHSCRNSSSFEDSS
phosphorylated: all assays above
